Reference: the supplement of paper PMC7877785
± gives the uncertainty stated by the source.

Test: self-splicing fitness, log relative to wild type (ln ratio); higher = more splicing; Tetrahymena group I intron in knt gene, E. coli kanamycin selection, DiMSum; sequences stand for … in CUCUCU…GGAGGGAAAAGUUAUCAGGCAUGCACCUGGUAGCUAGUCUUUAAACCAAUAGAUUGCAUCGGUUUAAAAGGCAAGACCGUCAAAUUGCGGGAAAGGGGUCAACAGCCGUUCAGUACCAAGUCUCAGGGGAAACUUUGAGAUGGCCUUGCAAAGGGUAUGGUAAUAAGCUGACGGACAUGGUCCUAACCACGCAGCCAAGUCCUAAGUCAACAGAUCUUCUGUUGAUAUGGAUGCAGUUCACAGACUAAAUGUCGGUCGGGGAAGAUGUAUUCUUCUCAUAAGAUAUAGUCGGACCUCUCCUUAAUGGGAGCUAGCGGAUGAAGUGAUGCAACACUGGAGCCGCUGGGAACUAAUUUGUAUGCGAAAGUAUAUUGAUUAGUUUUGGAGUACUCGUGGUCG
Method in brief: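 The eight P1ex-region nucleotides of an intron in the knt kanamycin-resistance gene on pET-22b(+) were all randomised and the library put into E. coli BL21(DE3). Six replicate transformations were grown overnight at 37°C or 30°C on LB agar with or without 25 μg/mL kanamycin, together with 100 μg/mL carbenicillin, 50 μM IPTG and 0.2% rhamnose. Colonies were pooled and amplicon-sequenced on an Illumina HiSeq 2500. Fitness from DiMSum is the error-weighted combination of wild-type-normalised replicate fold changes, kanamycin over none.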

Row | Sequence | self-splicing fitness (ln) (30 °C) | self-splicing fitness (ln) (37 °C)
1 | GUAUAGCAAUAUUACGUUUA | -2.74 ± 0.19 | -1.52 ± 0.17
2 | ACGCAGCAAUAUUACGCCGU | -3.33 ± 0.2 | -2.74 ± 0.27
3 | GGACAGCAAUAUUACGGCAU | -0.228 ± 0.053 | 0.0818 ± 0.068
4 | ACCCAGCAAUAUUACGUCUC | -1.89 ± 0.078 | -0.796 ± 0.094
5 | CACGAGCAAUAUUACGGCCG | -0.354 ± 0.094 | -0.105 ± 0.13
6 | CUGAAGCAAUAUUACGAGCA | -3.59 ± 0.19 | -2.01 ± 0.2
7 | GGCCAGCAAUAUUACGUCCU | -1.47 ± 0.21 | -0.4 ± 0.17
8 | UUGCAGCAAUAUUACGGAAA | -2.52 ± 0.14 | -0.504 ± 0.1
9 | CAGCAGCAAUAUUACGUAGG | -0.47 ± 0.063 | -0.331 ± 0.094
10 | UGCCAGCAAUAUUACGUAUA | -1.92 ± 0.11 | -1.62 ± 0.12
11 | AACUAGCAAUAUUACGUUGU | -3.51 ± 0.13 | -2.29 ± 0.12
12 | ACGCAGCAAUAUUACGAGGA | -2.8 ± 0.16 | -2.26 ± 0.17
13 | GCGAAGCAAUAUUACGAUUA | -1.52 ± 0.3 | -0.0699 ± 0.23
14 | UUGAAGCAAUAUUACGGAAC | -3.62 ± 0.32 | -2.08 ± 0.3
15 | AAGCAGCAAUAUUACGAGGC | -1.38 ± 0.13 | -2.17 ± 0.22
16 | AAUUAGCAAUAUUACGCGGC | -2.28 ± 0.39 | -1.32 ± 0.3
17 | CAACAGCAAUAUUACGUGUC | -2.82 ± 0.13 | -2.04 ± 0.14
18 | CCUGAGCAAUAUUACGGAGA | -2.39 ± 0.25 | -3.09 ± 0.35
19 | CGAAAGCAAUAUUACGGGCU | -2.74 ± 0.14 | -1.55 ± 0.17
20 | ACCAAGCAAUAUUACGUCGU | -2.34 ± 0.076 | -1.88 ± 0.11
21 | GGUAAGCAAUAUUACGCCAU | -2.39 ± 0.36 | -1.86 ± 0.29
22 | UGAGAGCAAUAUUACGUGCU | -2.06 ± 0.21 | –
23 | UGCAAGCAAUAUUACGCUCU | -0.965 ± 0.12 | -0.235 ± 0.13
24 | CUUAAGCAAUAUUACGUUGA | – | -2.78 ± 0.29
25 | AAAUAGCAAUAUUACGAAUU | -1.65 ± 0.1 | -0.368 ± 0.12
26 | UCCCAGCAAUAUUACGACAU | -3.293 ± 0.018 | -2.13 ± 0.035

Row | Sequence | self-splicing fitness (ln) (30 °C) | self-splicing fitness (ln) (37 °C)
27 | GACAAGCAAUAUUACGUCCU | -1.99 ± 0.27 | -0.755 ± 0.19
28 | AUAGAGCAAUAUUACGUAAG | -1.94 ± 0.22 | -1.34 ± 0.25
29 | AUUGAGCAAUAUUACGGGAU | -3.29 ± 0.23 | -1.96 ± 0.15
30 | GAACAGCAAUAUUACGAACA | -0.908 ± 0.1 | -0.166 ± 0.12
31 | GUGCAGCAAUAUUACGAUCU | -0.791 ± 0.052 | -0.194 ± 0.062
32 | CGUAAGCAAUAUUACGGGGG | -2.61 ± 0.14 | -2.69 ± 0.19
33 | GUGAAGCAAUAUUACGGUUG | -1.71 ± 0.076 | -1.13 ± 0.11
34 | UGUGAGCAAUAUUACGACAG | -1.7 ± 0.1 | -1.59 ± 0.12
35 | CUUAAGCAAUAUUACGCUUU | -3.13 ± 0.11 | -2.26 ± 0.15
36 | UCAAAGCAAUAUUACGUCCC | -0.356 ± 0.2 | -1.14 ± 0.47
37 | GAAUAGCAAUAUUACGGAUG | -2.29 ± 0.099 | -2.01 ± 0.12
38 | UACCAGCAAUAUUACGCACC | -1.52 ± 0.26 | -0.172 ± 0.21
39 | GACCAGCAAUAUUACGCUGC | -3.73 ± 0.22 | -1.32 ± 0.15
40 | GCGUAGCAAUAUUACGAACG | -2.48 ± 0.29 | -1.79 ± 0.27
41 | CCUAAGCAAUAUUACGAGAG | -2.31 ± 0.17 | -1.23 ± 0.13
42 | AGAUAGCAAUAUUACGGACU | 0.201 ± 0.1 | -0.666 ± 0.093
43 | GCCGAGCAAUAUUACGGCCU | -2.54 ± 0.42 | -1.56 ± 0.35
44 | AUGGAGCAAUAUUACGUUCC | -2.13 ± 0.33 | –
45 | AGCAAGCAAUAUUACGAUGA | -1.33 ± 0.085 | -0.569 ± 0.088
46 | GUUAAGCAAUAUUACGACUA | -0.731 ± 0.13 | -0.438 ± 0.11
47 | UAGAAGCAAUAUUACGCUAG | -1.18 ± 0.13 | -0.412 ± 0.16
48 | GGCAAGCAAUAUUACGUCGA | -0.765 ± 0.13 | -0.561 ± 0.13
49 | UGUGAGCAAUAUUACGCUAU | – | -1.9 ± 0.3
50 | CGCUAGCAAUAUUACGGCGU | -4.23 ± 0.42 | -2.71 ± 0.21
51 | AGUCAGCAAUAUUACGAAAU | -1.76 ± 0.078 | -0.398 ± 0.094
52 | ACGGAGCAAUAUUACGGAAC | -3.05 ± 0.27 | -3.62 ± 0.47

Row | Sequence | self-splicing fitness (ln) (30 °C) | self-splicing fitness (ln) (37 °C)
53 | ACGAAGCAAUAUUACGAGGG | -3.54 ± 0.17 | -3.26 ± 0.3
54 | AGUUAGCAAUAUUACGAAUG | -2.33 ± 0.16 | -1.56 ± 0.17
55 | UGCUAGCAAUAUUACGAAUU | -4.43 ± 0.41 | -1.98 ± 0.17
56 | AAGGAGCAAUAUUACGAGAA | -3.76 ± 0.42 | -2.22 ± 0.24
57 | CCGAAGCAAUAUUACGAGCG | -0.283 ± 0.087 | 0.807 ± 0.1
58 | AAGAAGCAAUAUUACGGUCU | -0.564 ± 0.066 | -0.233 ± 0.1
59 | ACGUAGCAAUAUUACGGUCA | -0.681 ± 0.16 | 0.577 ± 0.17
60 | GACAAGCAAUAUUACGACGA | -0.615 ± 0.067 | 0.296 ± 0.095
61 | AACAAGCAAUAUUACGGAUA | -3.95 ± 0.2 | -2.18 ± 0.12
62 | GCAUAGCAAUAUUACGCUGG | – | -2.15 ± 0.49
63 | GGUGAGCAAUAUUACGGCUU | -1.7 ± 0.16 | -0.614 ± 0.17
64 | GAAUAGCAAUAUUACGGGAC | -3.37 ± 0.31 | -2.53 ± 0.3
65 | CUUGAGCAAUAUUACGCUGC | -2.39 ± 0.49 | –
66 | CGCCAGCAAUAUUACGUUGG | -2.64 ± 0.14 | -2.68 ± 0.24
67 | AACAAGCAAUAUUACGUCGC | -3.63 ± 0.14 | -2.21 ± 0.17
68 | AUCGAGCAAUAUUACGGAAC | -2.61 ± 0.31 | -2.07 ± 0.4
69 | AUGAAGCAAUAUUACGUCUA | 0.344 ± 0.094 | 0.623 ± 0.11
70 | GCAAAGCAAUAUUACGGGUU | -2.11 ± 0.12 | -1.67 ± 0.16
71 | AGGGAGCAAUAUUACGGUAC | -2.99 ± 0.31 | -2.67 ± 0.3
72 | ACACAGCAAUAUUACGGUGG | -2.44 ± 0.08 | -1.67 ± 0.099
73 | UUUUAGCAAUAUUACGACUC | -2.56 ± 0.46 | –
74 | UACAAGCAAUAUUACGGGAG | -3.1 ± 0.12 | -1.49 ± 0.094
75 | AUAGAGCAAUAUUACGCAAG | -2.97 ± 0.2 | -1.24 ± 0.22
76 | AGUUAGCAAUAUUACGUACC | -0.585 ± 0.24 | -0.376 ± 0.28
77 | CUACAGCAAUAUUACGGGGU | -3.62 ± 0.12 | -2.34 ± 0.14
78 | GUGUAGCAAUAUUACGUACC | -1.2 ± 0.29 | -0.885 ± 0.37
